Source: paper PMC12102759 (2025)

B1: PAIP1 peptide 124-139 (Polyadenylate-binding protein-interacting protein 1), 16-mer library wild type / PABPC1 PABC (PABPC1 PABC domain, residues 544-623) (parent complex)
chain 1: LMSKLSVNAPEFYPSG
chain 2: PLTASMLASAPPQEQKQMLGERLFPLIQAMHPTLAGKITGMLLEIDNSELLHMLESPESLRSKVDEAVAVLQAHQAKEAA

Variants of: B1
Assay: proteomic peptide phage display deep mutational scan (ProP-PD DMS): M13 P8 16-mer library selected against immobilised GST-tagged bait for four days (rounds), NGS of the eluted pools per day and pseudo-replica; bait immobilised on MaxiSorp plates (10 µg), library pre-cleared on GST, 2 h binding at 4 °C, five washes; one round per day, days 1-4; value from days 2 and 3

Row | Variant | screen value
1 | chain 1 LMSKLSVSAPEFYPSG [chain 1 N8S] | 0.00131 average fractional NGS count over selection days 2 and 3 (reads of this peptide / all reads for the bait, averaged over …
2 | chain 1 LMSKLSVNAPMFYPSG [chain 1 E11M] | 0.000642 average fractional NGS count over selection days 2 and 3 (reads of this peptide / all reads for the bait, averaged over …
3 | chain 1 LWSKLSVNAPEFYPSG [chain 1 M2W] | 0.000144 average fractional NGS count over selection days 2 and 3 (reads of this peptide / all reads for the bait, averaged over …
4 | chain 1 LMSKLSVNAPEFYPSE [chain 1 G16E] | 0.000703 average fractional NGS count over selection days 2 and 3 (reads of this peptide / all reads for the bait, averaged over …
5 | chain 1 LMSKLSVNAPEFRPSG [chain 1 Y13R] | 0.000336 average fractional NGS count over selection days 2 and 3 (reads of this peptide / all reads for the bait, averaged over …
6 | chain 1 LMSKLSVNAPEFDPSG [chain 1 Y13D] | 0.00104 average fractional NGS count over selection days 2 and 3 (reads of this peptide / all reads for the bait, averaged over …
7 | chain 1 LMSKLSVNAPEFYPSF [chain 1 G16F] | 0.00158 average fractional NGS count over selection days 2 and 3 (reads of this peptide / all reads for the bait, averaged over …
8 | chain 1 LMSKLSVNAPEFIPSG [chain 1 Y13I] | 0.021 average fractional NGS count over selection days 2 and 3 (reads of this peptide / all reads for the bait, averaged over …
9 | chain 1 LMSHLSVNAPEFYPSG [chain 1 K4H] | 0.00136 average fractional NGS count over selection days 2 and 3 (reads of this peptide / all reads for the bait, averaged over …
10 | chain 1 LMSELSVNAPEFYPSG [chain 1 K4E] | 0.000553 average fractional NGS count over selection days 2 and 3 (reads of this peptide / all reads for the bait, averaged over …
11 | chain 1 LMSTLSVNAPEFYPSG [chain 1 K4T] | 0.00284 average fractional NGS count over selection days 2 and 3 (reads of this peptide / all reads for the bait, averaged over …
12 | chain 1 LMTKLSVNAPEFYPSG [chain 1 S3T] | 0.00109 average fractional NGS count over selection days 2 and 3 (reads of this peptide / all reads for the bait, averaged over …
13 | chain 1 LMSALSVNAPEFYPSG [chain 1 K4A] | 0.00111 average fractional NGS count over selection days 2 and 3 (reads of this peptide / all reads for the bait, averaged over …
14 | chain 1 LMSKLSVNAPEWYPSG [chain 1 F12W] | 0.00452 average fractional NGS count over selection days 2 and 3 (reads of this peptide / all reads for the bait, averaged over …
15 | chain 1 LMSKLWVNAPEFYPSG [chain 1 S6W] | 0.000475 average fractional NGS count over selection days 2 and 3 (reads of this peptide / all reads for the bait, averaged over …
16 | chain 1 LMSKLSVNAPEFSPSG [chain 1 Y13S] | 0.000669 average fractional NGS count over selection days 2 and 3 (reads of this peptide / all reads for the bait, averaged over …
17 | chain 1 LMSKLSVNAPEFYPRG [chain 1 S15R] | 0.00163 average fractional NGS count over selection days 2 and 3 (reads of this peptide / all reads for the bait, averaged over …
18 | chain 1 LMSKLNVNAPEFYPSG [chain 1 S6N] | 0.000518 average fractional NGS count over selection days 2 and 3 (reads of this peptide / all reads for the bait, averaged over …
19 | chain 1 LMSKLSVNAPEFEPSG [chain 1 Y13E] | 0.00175 average fractional NGS count over selection days 2 and 3 (reads of this peptide / all reads for the bait, averaged over …

Row | Variant | screen value
20 | chain 1 LMSKLSYNAPEFYPSG [chain 1 V7Y] | 0.000349 average fractional NGS count over selection days 2 and 3 (reads of this peptide / all reads for the bait, averaged over …
21 | chain 1 LMSKLSVNAPEFKPSG [chain 1 Y13K] | 0.00389 average fractional NGS count over selection days 2 and 3 (reads of this peptide / all reads for the bait, averaged over …
22 | chain 1 LMSKLSPNAPEFYPSG [chain 1 V7P] | 0.00145 average fractional NGS count over selection days 2 and 3 (reads of this peptide / all reads for the bait, averaged over …
23 | chain 1 LMQKLSVNAPEFYPSG [chain 1 S3Q] | 0.00262 average fractional NGS count over selection days 2 and 3 (reads of this peptide / all reads for the bait, averaged over …
24 | chain 1 LMSKLSVNAPEFYPSI [chain 1 G16I] | 0.00186 average fractional NGS count over selection days 2 and 3 (reads of this peptide / all reads for the bait, averaged over …
25 | chain 1 LMSKLSVNAPEFMPSG [chain 1 Y13M] | 0.000346 average fractional NGS count over selection days 2 and 3 (reads of this peptide / all reads for the bait, averaged over …
26 | chain 1 LMSKLSVNAPEFYPMG [chain 1 S15M] | 0.00153 average fractional NGS count over selection days 2 and 3 (reads of this peptide / all reads for the bait, averaged over …
27 | chain 1 LMSKLSVNASEFYPSG [chain 1 P10S] | 0.00454 average fractional NGS count over selection days 2 and 3 (reads of this peptide / all reads for the bait, averaged over …
28 | chain 1 LMSPLSVNAPEFYPSG [chain 1 K4P] | 0.0037 average fractional NGS count over selection days 2 and 3 (reads of this peptide / all reads for the bait, averaged over …
29 | chain 1 LMSKLSVNAPEFYPSM [chain 1 G16M] | 0.00176 average fractional NGS count over selection days 2 and 3 (reads of this peptide / all reads for the bait, averaged over …
30 | chain 1 LMSKLSVNAPEFYPPG [chain 1 S15P] | 0.000374 average fractional NGS count over selection days 2 and 3 (reads of this peptide / all reads for the bait, averaged over …
31 | chain 1 LPSKLSVNAPEFYPSG [chain 1 M2P] | 0.000581 average fractional NGS count over selection days 2 and 3 (reads of this peptide / all reads for the bait, averaged over …
32 | chain 1 LMSKLSVFAPEFYPSG [chain 1 N8F] | 0.00423 average fractional NGS count over selection days 2 and 3 (reads of this peptide / all reads for the bait, averaged over …
33 | chain 1 LMSKLSVNAMEFYPSG [chain 1 P10M] | 0.000583 average fractional NGS count over selection days 2 and 3 (reads of this peptide / all reads for the bait, averaged over …
34 | chain 1 LMSKLSVNAPEFYRSG [chain 1 P14R] | 0.00035 average fractional NGS count over selection days 2 and 3 (reads of this peptide / all reads for the bait, averaged over …
35 | chain 1 LMSKLSVNAPEFYPGG [chain 1 S15G] | 0.00184 average fractional NGS count over selection days 2 and 3 (reads of this peptide / all reads for the bait, averaged over …
36 | chain 1 LMSKLSVAAPEFYPSG [chain 1 N8A] | 0.000206 average fractional NGS count over selection days 2 and 3 (reads of this peptide / all reads for the bait, averaged over …
37 | chain 1 LMSKLSVNAPEFYPYG [chain 1 S15Y] | 0.00169 average fractional NGS count over selection days 2 and 3 (reads of this peptide / all reads for the bait, averaged over …
38 | chain 1 LGSKLSVNAPEFYPSG [chain 1 M2G] | 0.00279 average fractional NGS count over selection days 2 and 3 (reads of this peptide / all reads for the bait, averaged over …

Row | Variant | screen value
39 | chain 1 LMHKLSVNAPEFYPSG [chain 1 S3H] | 0.000523 average fractional NGS count over selection days 2 and 3 (reads of this peptide / all reads for the bait, averaged over …
40 | chain 1 LMSKLSVNAAEFYPSG [chain 1 P10A] | 0.0041 average fractional NGS count over selection days 2 and 3 (reads of this peptide / all reads for the bait, averaged over …
41 | chain 1 LMSKLSVNAPEFYPSH [chain 1 G16H] | 0.00575 average fractional NGS count over selection days 2 and 3 (reads of this peptide / all reads for the bait, averaged over …
42 | chain 1 LMSKLSVNAPIFYPSG [chain 1 E11I] | 0.000759 average fractional NGS count over selection days 2 and 3 (reads of this peptide / all reads for the bait, averaged over …
43 | chain 1 LMSKLSVNAPEFYPST [chain 1 G16T] | 0.000984 average fractional NGS count over selection days 2 and 3 (reads of this peptide / all reads for the bait, averaged over …
44 | chain 1 LMSGLSVNAPEFYPSG [chain 1 K4G] | 0.000301 average fractional NGS count over selection days 2 and 3 (reads of this peptide / all reads for the bait, averaged over …
45 | chain 1 LMSKLSVNAEEFYPSG [chain 1 P10E] | 0.00302 average fractional NGS count over selection days 2 and 3 (reads of this peptide / all reads for the bait, averaged over …
46 | chain 1 LMSKLSVNAPEFYPSQ [chain 1 G16Q] | 0.00204 average fractional NGS count over selection days 2 and 3 (reads of this peptide / all reads for the bait, averaged over …
47 | chain 1 LMSKLSVNSPEFYPSG [chain 1 A9S] | 0.000704 average fractional NGS count over selection days 2 and 3 (reads of this peptide / all reads for the bait, averaged over …
48 | chain 1 LMSKLSVNAHEFYPSG [chain 1 P10H] | 0.000334 average fractional NGS count over selection days 2 and 3 (reads of this peptide / all reads for the bait, averaged over …
49 | chain 1 LMSKLSVNAPTFYPSG [chain 1 E11T] | 0.000925 average fractional NGS count over selection days 2 and 3 (reads of this peptide / all reads for the bait, averaged over …
50 | chain 1 LMSKLSVNAPEFYPEG [chain 1 S15E] | 0.0098 average fractional NGS count over selection days 2 and 3 (reads of this peptide / all reads for the bait, averaged over …
51 | chain 1 LESKLSVNAPEFYPSG [chain 1 M2E] | 0.00221 average fractional NGS count over selection days 2 and 3 (reads of this peptide / all reads for the bait, averaged over …
52 | chain 1 LVSKLSVNAPEFYPSG [chain 1 M2V] | 0.000531 average fractional NGS count over selection days 2 and 3 (reads of this peptide / all reads for the bait, averaged over …
53 | chain 1 LMSKLSVNAPEFYWSG [chain 1 P14W] | 0.000356 average fractional NGS count over selection days 2 and 3 (reads of this peptide / all reads for the bait, averaged over …
54 | chain 1 LMSILSVNAPEFYPSG [chain 1 K4I] | 0.000664 average fractional NGS count over selection days 2 and 3 (reads of this peptide / all reads for the bait, averaged over …
55 | chain 1 LMSMLSVNAPEFYPSG [chain 1 K4M] | 0.000922 average fractional NGS count over selection days 2 and 3 (reads of this peptide / all reads for the bait, averaged over …
56 | chain 1 LMSKLSVNAPEFWPSG [chain 1 Y13W] | 0.00367 average fractional NGS count over selection days 2 and 3 (reads of this peptide / all reads for the bait, averaged over …
